Measured values as given in patent US20230212587A1, “Mutant Hydroxyphenylpyruvate Dioxygenase Polypeptide, Encoding Gene Thereof and Use Therefor” (Beijing Dabeinong Biotechnology Co., Ltd., priority 2019, published 2023).
Changes are numbered by the printed parent chain. In names and notes the source's numbering stands.

B1: PfHPPDm-G413W: Pseudomonas fluorescens HPPD with G336W (position 413 of SEQ ID NO: 1), SEQ ID NO: 418 (protein)
chain: MADLYENPMGLMGFEFIEFASPTPGTLEPIFEIMGFTKVATHRSKNVHLYRQGEINLILNNEPNSIASYFAAEHGPSVCGMAFRVKDSQKAYNRALELGAQPIHIDTGPMELNLPAIKGIGGAPLYLIDRFGEGSSIYDIDFVYLEGVERNPVGAGLKVIDHLTHNVYRGRMVYWANFYEKLFNFREARYFDIKGEYTGLTSKAMSAPDGMIRIPLNEESSKGAGQIEEFLMQFNGEGIQHVAFLTDDLVKTWDALKKIGMRFMTAPPDTYYEMLEGRLPDHGEPVDQLQARGILLDGSSVEGDKRLLLQIFSETLMGPVFFEFIQRKGDDGFGEWNFKALFESIERDQVRRGVLTAD
modifications: PfHPPDm-G413W Amino Acid Sequence
B2: AsHPPDm-A110: Avena sativa HPPD with deletion of alanine at position 110, SEQ ID NO: 414 (protein)
chain: MPPTPATATGAAAAAVTPEHAARSFPRVVRVNPRSDRFPVLSFHHVELWCADAASAAGRFSFALGAPLAARSDLSTGNSAHASLLLRSGALAFLFTAPYAPPPQEAATAATASIPSFSADAARTFAAAHGLAVRSVGVRVADAAEAFRVSVAGGARPAFAPADLGHGFGLAEVELYGDVVLRFVSYPDETDLPFLPGFERVSSPGAVDYGLTRFDHVVGNVPEMAPVIDYMKGFLGFHEFAEFTAEDVGTTESGLNSVVLANNSEAVLLPLNEPVHGTKRRSQIQTYLEYHGGPGVQHIALASNDVLRTLREMRARTPMGGFEFMAPPQAKYYEGVRRIAGDVLSEEQIKECQELGVLVDRDDQGVLLQIFTKPVGDRPTFFLEMIQRIGCMEKDEVGQEYQKGGCGGFGKGNFSELFKSIEDYEKSLEVKQSVVAQKS
modifications: AsHPPDm-A110 Amino Acid Sequence
B3: F372G (protein, listed as Avena sativa)
chain: MPPTPATATGAAAAAVTPEHAARSFPRVVRVNPRSDRFPVLSFHHVELWCADAASAAGRFSFALGAPLAARSDLSTGNSAHASLLLRSGALAFLFTAPYAPPPQEAATAAATASIPSFSADAARTFAAAHGLAVRSVGVRVADAAEAFRVSVAGGARPAFAPADLGHGFGLAEVELYGDVVLRFVSYPDETDLPFLPGFERVSSPGAVDYGLTRFDHVVGNVPEMAPVIDYMKGFLGFHEFAEFTAEDVGTTESGLNSVVLANNSEAVLLPLNEPVHGTKRRSQIQTYLEYHGGPGVQHIALASNDVLRTLREMRARTPMGGFEFMAPPQAKYYEGVRRIAGDVLSEEQIKECQELGVLVDRDDQGVLLQIGTKPVGDRPTFFLEMIQRIGCMEKDEVGQEYQKGGCGGFGKGNFSELFKSIEDYEKSLEVKQSVVAQKS
modifications: AsHPPD Amido Acid Sequence
B4: F372D (protein, listed as Avena sativa)
chain: B3 chain with G372D
modifications: AsHPPD Amido Acid Sequence
B5: F372V (protein, listed as Avena sativa)
chain: B3 chain with G372V
modifications: AsHPPD Amido Acid Sequence
B6: F372I (protein, listed as Avena sativa)
chain: B3 chain with G372I
modifications: AsHPPD Amido Acid Sequence
B7: F372Q (protein, listed as Avena sativa)
chain: B3 chain with G372Q
modifications: AsHPPD Amido Acid Sequence
B8: F372N (protein, listed as Avena sativa)
chain: B3 chain with G372N
modifications: AsHPPD Amido Acid Sequence

Tested on: Arabidopsis thaliana T1 plants
Test: Topramezone tolerance of transgenic Arabidopsis thaliana T1 plants (pesticide damage grade by bleached leaf area, score, resistance evaluation)
Assay type: in vivo
Parameters: score: scale not given here
Conditions: Arabidopsis thaliana T1 plants sprayed with topramezone
Excerpt: The Arabidopsisthaliana T1 plants into which the AsHPPDm-F372A-02 nucleotide sequence was introduced, Arabidopsis thaliana T1 plants into which the AsHPPD-02 nucleotide sequence was introduced and wild-type Arabidopsisthaliana plants (18 days after sowing) were sprayed with topramezone at four different concentrations, i.e., 25 g ai/ha (one-fold field concentration, 1×), 50 g ai/ha (two-fold field concentration, 2×), 100 g ai/ha (four-fold field concentration, 4×) and 0 g ai/ha (water, 0×) to determine the tolerance of Arabidopsisthaliana to the herbicide. The degree of damage caused by the herbicide was measured for each plant according to the proportion of bleached leaf area (the proportion of bleached leaf area=bleached leaf area/total leaf area×100%) 7 days after spraying (7 DAT): the case where there is basically no bleached phenotype is defined as grade 0, the case where the proportion of bleached leaf area is less than 50% is defined as grade 1,the case where the proportion of bleached leaf area is more than 50% is defined as grade 2, and the case where the proportion of bleached leaf area is 100% grade is defined as grade 3.
(§1) According to the method as described above in point 6 of Example 1, the aforementioned Arabidopsisthaliana T1 plants and wild-type Arabidopsisthaliana plants (18 days after sowing) were sprayed with topramezone at three different concentrations respectively, i.e., 25 g ai/ha (one-fold field concentration, 1×), 100 g ai/ha (four-fold field concentration, 4×) and 0 g ai/ha(water, 0×) to detect the tolerance of Arabidopsisthaliana to the herbicide.
as §1, with “1x),” for “1×),”, “4x)” for “4×)”, “ai/ha (water, 0x)” for “ai/ha(water, 0×)”
According to the method as described above in point 6 of Example 1, the above-mentioned Arabidopsisthaliana T1 plants, Arabidopsisthaliana T1 plants into which the AsHPPD-02 nucleotide sequence was introduced, Arabidopsisthaliana T1 plants into which the PfHPPD-02 nucleotide sequence was introduced, and wild-type Arabidopsisthaliana plants (18 days after sowing) were sprayed with topramezone at four different concentrations respectively, that is, 25 g ai/ha (one-fold field concentration, 1x), 50 g ai/ha (two-fold field concentration, 2x), 100 g ai/ha (four-fold field concentration, 4x) and 0 g ai/ha (water, Ox) to detect the herbicide tolerance of Arabidopsisthaliana.
According to the method as described in point 6 of Example 1, the above-mentioned Arabidopsisthaliana T1 plants and wild-type Arabidopsisthaliana plants (18 days after sowing) were sprayed with topramezone at two different concentrations respectively, that is, 25 g ai/ha (one-fold field concentration, 1x) and 100 g ai/ha (four-fold field concentration, 4x) to detect the herbicide tolerance of Arabidopsisthaliana,. […]

Molecule | tolerance to topramezone, in words
B1 | a certain tolerance to low concentration of topramezone
B2 | a certain tolerance to low concentration of topramezone

Same assay, conditions: saturation mutation of HPPD from Avena sativa source (label F372X = AsHPPDm-F372X); topramezone 25, 50, 100 g ai/ha

Molecule | tolerance to topramezone, in words
B3 | better tolerance
B4 | better tolerance
B5 | better tolerance
B6 | better tolerance
B7 | better tolerance
B8 | better tolerance

Same assay, conditions: topramezone 25 g ai/ha (1x); HPPD from Avena sativa source

Molecule | Resistance Grade | score
B3 | Highly resistant | 0
B4 | Highly resistant | 7
B5 | Highly resistant | 0
B7 | Highly resistant | 0
B8 | Highly resistant | 7

Same assay, conditions: topramezone 25 g ai/ha (1x); number of plants; HPPD from Avena sativa source

Molecule | Grade 0 | Grade 1 | Grade 2 | Grade 3
B3 | 20 | 0 | 0 | 0
B4 | 16 | 4 | 0 | 0
B5 | 20 | 0 | 0 | 0
B7 | 20 | 0 | 0 | 0
B8 | 18 | 0 | 2 | 0

Same assay, conditions: topramezone 25 g ai/ha; mutation combination, Table 8

Molecule | Grade 0 (number of plants) | Grade 1 (number of plants) | Grade 2 (number of plants) | Grade 3 (number of plants) | Resistance Grade | score
B1 | 2 | 18 | 0 | 0 | Moderately resistant | 30
B2 | 4 | 16 | 0 | 0 | Moderately resistant | 27

Same assay, conditions: topramezone 50 g ai/ha (2x); HPPD from Avena sativa source

Molecule | Resistance Grade | score
B3 | Highly resistant | 0
B4 | Highly resistant | 0
B5 | Highly resistant | 0
B7 | Highly resistant | 0
B8 | Highly resistant | 0

Same assay, conditions: topramezone 50 g ai/ha (2x); number of plants; HPPD from Avena sativa source

Molecule | Grade 0 | Grade 1 | Grade 2 | Grade 3
B3 | 20 | 0 | 0 | 0
B4 | 20 | 0 | 0 | 0
B5 | 20 | 0 | 0 | 0
B7 | 20 | 0 | 0 | 0
B8 | 20 | 0 | 0 | 0

Same assay, conditions: topramezone 100 g ai/ha (4x); HPPD from Avena sativa source

Molecule | Resistance Grade | score
B3 | Highly resistant | 0
B4 | Highly resistant | 0
B5 | Highly resistant | 0
B7 | Highly resistant | 0
B8 | Highly resistant | 0

Same assay, conditions: topramezone 100 g ai/ha (4x); number of plants; HPPD from Avena sativa source

Molecule | Grade 0 | Grade 1 | Grade 2 | Grade 3
B3 | 20 | 0 | 0 | 0
B4 | 20 | 0 | 0 | 0
B5 | 20 | 0 | 0 | 0
B7 | 20 | 0 | 0 | 0
B8 | 20 | 0 | 0 | 0

Same assay, conditions: topramezone 100 g ai/ha; mutation combination, Table 8

Molecule | Grade 0 (number of plants) | Grade 1 (number of plants) | Grade 2 (number of plants) | Grade 3 (number of plants) | Resistance Grade | score
B1 | 0 | 0 | 10 | 10 | Non-resistant | 83
B2 | 0 | 0 | 14 | 6 | Non-resistant | 77
